Positions count from the first letter of the chain named.

B1: Trastuzumab HCDR3 variant ARYGVYGYAMDY (Fab, V domains shown)
VH: EVQLVESGGGLVQPGGSLRLSCAASGFNIKDTYIHWVRQAPGKGLEWVARIYPTNGYTRYADSVKGRFTISADTSKNTAYLQMNSLRAEDTAVYYCARYGVYGYAMDYWGQGTLVTVSS
VL: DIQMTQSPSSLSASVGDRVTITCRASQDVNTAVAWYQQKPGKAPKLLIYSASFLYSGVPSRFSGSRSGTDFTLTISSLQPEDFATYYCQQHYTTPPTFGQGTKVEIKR
B2: Trastuzumab HCDR3 variant ARYPEDFYYFDV (Fab, V domains shown)
VH: B1 VH with G100P, V101E, Y102D, G103F, A105Y, M106F, Y108V
VL: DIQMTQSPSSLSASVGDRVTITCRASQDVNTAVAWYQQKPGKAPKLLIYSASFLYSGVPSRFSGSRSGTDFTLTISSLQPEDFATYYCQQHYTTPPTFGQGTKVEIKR
B3: Trastuzumab HCDR3 variant ARYLEYTYAWDY (Fab, V domains shown)
VH: B1 VH with G100L, V101E, G103T, M106W
VL: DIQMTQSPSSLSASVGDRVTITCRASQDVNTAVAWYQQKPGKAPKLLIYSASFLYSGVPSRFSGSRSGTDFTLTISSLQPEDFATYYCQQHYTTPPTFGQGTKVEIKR
B4: Trastuzumab HCDR3 variant ARYHNTGYFWGA (Fab, V domains shown)
VH: B1 VH with G100H, V101N, Y102T, A105F, M106W, D107G, Y108A
VL: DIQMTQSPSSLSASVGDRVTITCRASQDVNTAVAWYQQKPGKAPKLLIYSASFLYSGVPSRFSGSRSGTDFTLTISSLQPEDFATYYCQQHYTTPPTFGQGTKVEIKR
B5: Trastuzumab HCDR3 variant ARYLSYSYAWDN (Fab, V domains shown)
VH: B1 VH with G100L, V101S, G103S, M106W, Y108N
VL: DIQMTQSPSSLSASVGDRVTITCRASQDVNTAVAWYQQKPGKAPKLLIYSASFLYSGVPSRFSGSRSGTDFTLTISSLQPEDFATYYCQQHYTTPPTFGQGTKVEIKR
B6: Trastuzumab HCDR3 variant ARYPDYYYAMDY (Fab, V domains shown)
VH: B1 VH with G100P, V101D, G103Y
VL: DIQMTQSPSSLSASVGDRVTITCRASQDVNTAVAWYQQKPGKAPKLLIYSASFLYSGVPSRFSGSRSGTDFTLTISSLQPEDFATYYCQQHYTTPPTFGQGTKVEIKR
B7: Trastuzumab HCDR3 variant ARYHYSGYFMDS (Fab, V domains shown)
VH: B1 VH with G100H, V101Y, Y102S, A105F, Y108S
VL: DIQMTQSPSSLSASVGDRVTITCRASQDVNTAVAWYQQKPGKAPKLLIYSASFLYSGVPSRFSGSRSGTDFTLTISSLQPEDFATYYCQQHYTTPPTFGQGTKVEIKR
B8: Trastuzumab HCDR3 variant ARYLSYSFAWDY (Fab, V domains shown)
VH: B1 VH with G100L, V101S, G103S, Y104F, M106W
VL: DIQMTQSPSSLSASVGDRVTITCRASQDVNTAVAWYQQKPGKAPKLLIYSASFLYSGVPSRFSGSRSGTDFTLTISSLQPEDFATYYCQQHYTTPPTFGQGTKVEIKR
B9: Trastuzumab HCDR3 variant ARYYGGLYYFDY (Fab, V domains shown)
VH: B1 VH with G100Y, V101G, Y102G, G103L, A105Y, M106F
VL: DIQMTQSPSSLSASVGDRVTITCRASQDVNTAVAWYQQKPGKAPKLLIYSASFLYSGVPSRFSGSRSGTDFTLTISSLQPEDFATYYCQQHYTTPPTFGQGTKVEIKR
B10: Trastuzumab HCDR3 variant ARYYDDTIYSFY (Fab, V domains shown)
VH: B1 VH with G100Y, V101D, Y102D, G103T, Y104I, A105Y, M106S, D107F
VL: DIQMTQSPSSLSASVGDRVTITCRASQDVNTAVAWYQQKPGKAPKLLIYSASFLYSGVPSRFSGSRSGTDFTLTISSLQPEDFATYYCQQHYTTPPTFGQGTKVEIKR
B11: Trastuzumab HCDR3 variant ARYQAYDNSYGV (Fab, V domains shown)
VH: B1 VH with G100Q, V101A, G103D, Y104N, A105S, M106Y, D107G, Y108V
VL: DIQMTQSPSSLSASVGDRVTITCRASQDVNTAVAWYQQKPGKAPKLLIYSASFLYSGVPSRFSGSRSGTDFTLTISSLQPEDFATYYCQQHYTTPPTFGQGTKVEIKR
B12: Trastuzumab HCDR3 variant ARYLSYSYAWDY (Fab, V domains shown)
VH: B1 VH with G100L, V101S, G103S, M106W
VL: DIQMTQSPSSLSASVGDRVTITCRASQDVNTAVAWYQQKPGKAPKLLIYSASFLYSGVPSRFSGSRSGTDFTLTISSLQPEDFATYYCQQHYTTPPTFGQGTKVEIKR
B13: Trastuzumab HCDR3 variant ARYSYGAFYYSI (Fab, V domains shown)
VH: B1 VH with G100S, V101Y, Y102G, G103A, Y104F, A105Y, M106Y, D107S, Y108I
VL: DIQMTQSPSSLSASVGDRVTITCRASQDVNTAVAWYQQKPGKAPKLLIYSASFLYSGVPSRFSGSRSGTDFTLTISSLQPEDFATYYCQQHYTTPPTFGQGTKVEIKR
B14: Trastuzumab HCDR3 variant ARYGYYGYWFDY (Fab, V domains shown)
VH: B1 VH with V101Y, A105W, M106F
VL: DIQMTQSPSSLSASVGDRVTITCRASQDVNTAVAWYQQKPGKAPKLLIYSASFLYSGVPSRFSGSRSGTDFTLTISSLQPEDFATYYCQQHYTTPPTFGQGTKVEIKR
B15: Trastuzumab HCDR3 variant ARYWYGSYVFDY (Fab, V domains shown)
VH: B1 VH with G100W, V101Y, Y102G, G103S, A105V, M106F
VL: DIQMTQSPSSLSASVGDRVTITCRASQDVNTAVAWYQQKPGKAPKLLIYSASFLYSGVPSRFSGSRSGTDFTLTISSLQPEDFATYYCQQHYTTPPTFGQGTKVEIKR
B16: Trastuzumab HCDR3 variant ARYLSYSYAWNY (Fab, V domains shown)
VH: B1 VH with G100L, V101S, G103S, M106W, D107N
VL: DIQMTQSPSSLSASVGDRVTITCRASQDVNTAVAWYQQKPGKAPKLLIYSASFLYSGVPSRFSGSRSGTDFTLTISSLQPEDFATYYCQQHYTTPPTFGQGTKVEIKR
B17: Trastuzumab HCDR3 variant ARYHFSGYFMDA (Fab, V domains shown)
VH: B1 VH with G100H, V101F, Y102S, A105F, Y108A
VL: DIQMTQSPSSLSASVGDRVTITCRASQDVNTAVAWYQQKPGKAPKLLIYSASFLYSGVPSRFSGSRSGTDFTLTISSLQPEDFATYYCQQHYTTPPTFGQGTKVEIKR
B18: Trastuzumab HCDR3 variant ARYPYGYYAMDY (Fab, V domains shown)
VH: B1 VH with G100P, V101Y, Y102G, G103Y
VL: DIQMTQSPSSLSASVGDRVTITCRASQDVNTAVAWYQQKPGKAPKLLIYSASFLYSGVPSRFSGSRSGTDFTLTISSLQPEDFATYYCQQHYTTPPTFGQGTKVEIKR

This experiment deals with human epidermal growth factor receptor 2 (HER2) extracellular domain (human, UniProt P04626 23-629). The experiment is described as follows: SPR. In general terms: Surface plasmon resonance follows binding to a sensor surface in real time, without labels.
For orientation: Kd means a measure of binding affinity in units of concentration. Low readings indicate higher affinity, high ones lower affinity. Turning to B1, the Kd amounted to 53.3 nM and the “log(KD (M))” value was -7.27 log(M).
For B2 the same measures were 40.2 nM and -7.4 log(M).
Turning to B3, the Kd came out at 218 nM and the “log(KD (M))” value is -6.66 log(M).
For B4, in that order: 61 nM and -7.22 log(M).
Consider B5, for which the affinity, expressed as Kd, was 42.6 nM and the “log(KD (M))” value is -7.37 log(M).
In the case of B6, the Kd came to 117 nM and the “log(KD (M))” value was -6.93 log(M).
Consider B7, for which binding was characterised by a dissociation constant (Kd) of 113 nM and the “log(KD (M))” value is -6.95 log(M).
For B8, in that order: 59.9 nM and -7.22 log(M).
For B9, in that order: 34.4 nM and -7.46 log(M).
For B10 the same measures were 29.9 nM and -7.53 log(M).
For the molecule B11, binding was put at a Kd of 102 nM and the “log(KD (M))” value was -6.99 log(M).
For B12 the same measures were 54.8 nM and -7.26 log(M).
Consider B13, for which the Kd was 70.4 nM and the “log(KD (M))” value is -7.15 log(M).
For B14, in that order: 59.4 nM and -7.23 log(M).
For B15, in that order: 78.3 nM and -7.11 log(M).
For B16, in that order: 28.9 nM and -7.54 log(M).
As to B17, the dissociation constant (Kd) came to 103 nM and the “log(KD (M))” value is -6.99 log(M).
For B18, in that order: 78.1 nM and -7.11 log(M).

For the origin of these results see patent publication US20250218531A1 (ABSCI, published 2025).
